In the supplement of paper PMC5998384:

Key:
[1] = tested on: HeLa Kyoto; test: solubility in G1/S (NP-40 vs SDS abundance) (log2 ratio); higher = more soluble; conditions: cell cycle stage: G1/S
[2] = tested on: HeLa Kyoto; test: melting temperature (median over replicates), in situ; higher = more thermally stable
[3] = tested on: HeLa Kyoto; test: solubility change mitosis vs G1/S (difference of NP-40 vs SDS log2 ratios) (log2 ratio difference); higher = more soluble in mitosis
[4] = tested on: HeLa Kyoto; test: thermal stability score vs G1/S (z-score of summed log2 fold changes over temperatures); higher = more thermally stable than in G1/S
[5] = cell cycle stage: early G1 (4.5 h after nocodazole release)
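Wherever melting temperature (median over replicates), in situ is given: HeLa Kyoto cells synchronized by double thymidine or nocodazole block, proteins quantified by TMT10plex mass spectrometry, three independent biological replicates.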
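Wherever solubility change mitosis vs G1/S (difference of NP-40 vs SDS log2 ratios) is given: synchronized HeLa Kyoto cells (double thymidine block for G1/S, nocodazole release for mitosis), protein amounts in NP-40 versus SDS lysates quantified by mass spectrometry, three biological replicates.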
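Wherever solubility in G1/S (NP-40 vs SDS abundance) is given: HeLa Kyoto cells arrested at G1/S by double thymidine block, proteins quantified by TMT10plex mass spectrometry in mild NP-40 versus SDS extracts, three biological replicates.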
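Wherever thermal stability score vs G1/S (z-score of summed log2 fold changes over temperatures) is given: synchronized HeLa Kyoto cells, proteins quantified by TMT10plex mass spectrometry, three biological replicates, mitosis taken 0.5 h after nocodazole release, G1/S directly after double thymidine block.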

Sequence of MTO1 (chain, as listed by the source): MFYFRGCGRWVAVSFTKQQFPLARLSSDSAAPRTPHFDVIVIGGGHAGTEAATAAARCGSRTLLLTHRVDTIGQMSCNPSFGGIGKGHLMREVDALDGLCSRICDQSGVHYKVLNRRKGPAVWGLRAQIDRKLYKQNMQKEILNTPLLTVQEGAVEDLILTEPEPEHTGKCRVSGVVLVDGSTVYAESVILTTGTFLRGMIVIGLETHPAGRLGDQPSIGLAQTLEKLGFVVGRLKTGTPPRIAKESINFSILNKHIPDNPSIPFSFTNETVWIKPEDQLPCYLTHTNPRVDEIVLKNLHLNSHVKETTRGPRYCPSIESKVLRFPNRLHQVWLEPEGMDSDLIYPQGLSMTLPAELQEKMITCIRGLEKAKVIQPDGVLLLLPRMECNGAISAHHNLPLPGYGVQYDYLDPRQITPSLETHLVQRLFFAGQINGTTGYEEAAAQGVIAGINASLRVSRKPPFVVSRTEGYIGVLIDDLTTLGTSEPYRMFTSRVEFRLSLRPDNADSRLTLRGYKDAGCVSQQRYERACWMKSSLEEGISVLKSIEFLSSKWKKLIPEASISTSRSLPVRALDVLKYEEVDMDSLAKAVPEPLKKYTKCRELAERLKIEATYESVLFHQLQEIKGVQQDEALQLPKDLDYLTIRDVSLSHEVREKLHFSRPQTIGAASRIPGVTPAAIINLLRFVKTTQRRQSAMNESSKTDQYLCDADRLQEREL

| Substance | solubility in G1/S (log2) [1] | melting temperature ([2]; cell cycle stage: G1/S) | melting temperature ([2]; cell cycle stage: mitosis) | solubility change mitosis (log2) [3] | thermal stability score [4, 5] | thermal stability score ([4]; cell cycle stage: mitosis) |
| --- | --- | --- | --- | --- | --- | --- |
| MTHEEHHAAKTLGIGKAIAVLTSGGDAQGMNAAVRAVVRVGIFTGARVFFVHEGYQGLVDGGDHIKEATWESVSMMLQLGGTVIGSARCKDFREREGRLRAAYNLVKRGITNLCVIGGDGSLTGADTFRSEWSDLLSDLQKAGKITDEEATKSSYLNIVGLVGSIDNDFCGTDMTIGTDSALHRIMEIVDAITTTAQSHQRTFVLEVMGRHCGYLALVTSLSCGADWVFIPECPPDDDWEEHLCRRLSETRTRGSRLNIIIVAEGAIDKNGKPITSEDIKNLVVKRLGYDTRVTVLGHVQRGGTPSAFDRILGSRMGVEAVMALLEGTPDTPACVVSLSGNQAVRLPLMECVQVTKDVTKAMDEKKFDEALKLRGRSFMNNWEVYKLLAHVRPPVSKSGSHTVAVMNVGAPAAGMNAAVRSTVRIGLIQGNRVLVVHDGFEGLAKGQIEEAGWSYVGGWTGQGGSKLGTKRTLPKKSFEQISANITKFNIQGLVIIGGFEAYTGGLELMEGRKQFDELCIPFVVIPATVSNNVPGSDFSVGADTALNTICTTCDRIKQSAAGTKRRVFIIETMGGYCGYLATMAGLAAGADAAYIFEEPFTIRDLQANVEHLVQKMKTTVKRGLVLRNEKCNENYTTDFIFNLYSEEGKGIFDSRKNVLGHMQQGGSPTPFDRNFATKMGAKAMNWMSGKIKESYRNGRIFANTPDSGCVLGMRKRALVFQPVAELKDQTDFEHRIPKEQWWLKLRPILKILAKYEIDLDTSDHAHLEHITRKRSGEAAV [PFKM] | 0.0079 | 59.6 °C | 59.7 °C | -0.181 | -1.59 | -1.13 |
| MTIHQFLLLFLFWVCLPHFCSPEIMFRRTPVPQQRILSSRVPRSDGKILHRQKRGWMWNQFFLLEEYTGSDYQYVGKLHSDQDKGDGSLKYILSGDGAGTLFIIDEKTGDIHATRRIDREEKAFYTLRAQAINRRTLRPVEPESEFVIKIHDINDNEPTFPEEIYTASVPEMSVVGTSVVQVTATDADDPSYGNSARVIYSILQGQPYFSVEPETGIIRTALPNMNRENREQYQVVIQAKDMGGQMGGLSGTTTVNITLTDVNDNPPRFPQNTIHLRVLESSPVGTAIGSVKATDADTGKNAEVEYRIIDGDGTDMFDIVTEKDTQEGIITVKKPLDYESRRLYTLKVEAENTHVDPRFYYLGPFKDTTIVKISIEDVDEPPVFSRSSYLFEVHEDIEVGTIIGTVMARDPDSISSPIRFSLDRHTDLDRIFNIHSGNGSLYTSKPLDRELSQWHNLTVIAAEINNPKETTRVAVFVRILDVNDNAPQFAVFYDTFVCENARPGQLIQTISAVDKDDPLGGQKFFFSLAAVNPNFTVQDNEDNTARILTRKNGFNRHEISTYLLPVVISDNDYPIQSSTGTLTIRVCACDSQGNMQSCSAEALLLPAGLSTGALIAILLCIIILLVIVVLFAALKRQRKKEPLILSKEDIRDNIVSYNDEGGGEEDTQAFDIGTLRNPAAIEEKKLRRDIIPETLFIPRRTPTAPDNTDVRDFINERLKEHDLDPTAPPYDSLATYAYEGNDSIAESLSSLESGTTEGDQNYDYLREWGPRFNKLAEMYGGGESDKDS [CDH10] | 0.0681 | 55.5 °C | 52.5 °C | -0.163 | -0.401 | -1.3 |
| MTILTYPFKNLPTASKWALRFSIRPLSCSSQLRAAPAVQTKTKKTLAKPNIRNVVVVDGVRTPFLLSGTSYKDLMPHDLARAALTGLLHRTSVPKEVVDYIIFGTVIQEVKTSNVAREAALGAGFSDKTPAHTVTMACISANQAMTTGVGLIASGQCDVIVAGGVELMSDVPIRHSRKMRKLMLDLNKAKSMGQRLSLISKFRFNFLAPELPAVSEFSTSETMGHSADRLAAAFAVSRLEQDEYALRSHSLAKKAQDEGLLSDVVPFKVPGKDTVTKDNGIRPSSLEQMAKLKPAFIKPYGTVTAANSSFLTDGASAMLIMAEEKALAMGYKPKAYLRDFMYVSQDPKDQLLLGPTYATPKVLEKAGLTMNDIDAFEFHEAFSGQILANFKAMDSDWFAENYMGRKTKVGLPPLEKFNNWGGSLSLGHPFGATGCRLVMAAANRLRKEGGQYGLVAACAAGGQGHAMIVEAYPK [HADHB] | 0.274 | 50.7 °C | 50.7 °C | -0.0395 | -0.727 | -0.0884 |
| MTKAGSKGGNLRDKLDGNELDLSLSDLNEVPVKELAALPKATILDLSCNKLTTLPSDFCGLTHLVKLDLSKNKLQQLPADFGRLVNLQHLDLLNNKLVTLPVSFAQLKNLKWLDLKDNPLDPVLAKVAGDCLDEKQCKQCANKVLQHMKAVQADQERERQRRLEVEREAEKKREAKQRAKEAQERELRKREKAEEKERRRKEYDALKAAKREQEKKPKKEANQAPKSKSGSRPRKPPPRKHTRSWAVLKLLLLLLLFGVAGGLVACRVTELQQQPLCTSVNTIYDNAVQGLRRHEILQWVLQTDSQQ [LRRC59] | 0.751 | 56.7 °C | 54 °C | 0.236 | 2.96 | -1.3 |
| MTKFGFLRLSYEKQDTLLKLLILSMAAVLSFSTRLFAVLRFESVIHEFDPYFNYRTTRFLAEEGFYKFHNWFDDRAWYPLGRIIGGTIYPGLMITSAAIYHVLHFFHITIDIRNVCVFLAPLFSSFTTIVTYHLTKELKDAGAGLLAAAMIAVVPGYISRSVAGSYDNEGIAIFCMLLTYYMWIKAVKTGSICWAAKCALAYFYMVSSWGGYVFLINLIPLHVLVLMLTGRFSHRIYVAYCTVYCLGTILSMQISFVGFQPVLSSEHMAAFGVFGLCQIHAFVDYLRSKLNPQQFEVLFRSVISLVGFVLLTVGALLMLTGKISPWTGRFYSLLDPSYAKNNIPIIASVSEHQPTTWSSYYFDLQLLVFMFPVGLYYCFSNLSDARIFIIMYGVTSMYFSAVMVRLMLVLAPVMCILSGIGVSQVLSTYMKNLDISRPDKKSKKQQDSTYPIKNEVASGMILVMAFFLITYTFHSTWVTSEAYSSPSIVLSARGGDGSRIIFDDFREAYYWLRHNTPEDAKVMSWWDYGYQITAMANRTILVDNNTWNNTHISRVGQAMASTEEKAYEIMRELDVSYVLVIFGGLTGYSSDDINKFLWMVRIGGSTDTGKHIKENDYYTPTGEFRVDREGSPVLLNCLMYKMCYYRFGQVYTEAKRPPGFDRVRNAEIGNKDFELDVLEEAYTTEHWLVRIYKVKDLDNRGLSRT [STT3A] | -0.102 | 53.7 °C | 54 °C | -0.105 | 1.3 | 3.3 |
| MTLESIMACCLSEEAKEARRINDEIERQLRRDKRDARRELKLLLLGTGESGKSTFIKQMRIIHGSGYSDEDKRGFTKLVYQNIFTAMQAMIRAMDTLKIPYKYEHNKAHAQLVREVDVEKVSAFENPYVDAIKSLWNDPGIQECYDRRREYQLSDSTKYYLNDLDRVADPAYLPTQQDVLRVRVPTTGIIEYPFDLQSVIFRMVDVGGQRSERRKWIHCFENVTSIMFLVALSEYDQVLVESDNENRMEESKALFRTIITYPWFQNSSVILFLNKKDLLEEKIMYSHLVDYFPEYDGPQRDAQAAREFILKMFVDLNPDSDKIIYSHFTCATDTENIRFVFAAVKDTILQLNLKEYNLV [GNAQ] | -0.282 | 54.7 °C | 54.3 °C | -0.0689 | -0.77 | -0.236 |
| MTMDGDSSTTDASQLGISADYIGGSHYVIQPHDDTEDSMNDHEDTNGSKESFREQDIYLPIANVARIMKNAIPQTGKIAKDAKECVQECVSEFISFITSEASERCHQEKRKTINGEDILFAMSTLGFDSYVEPLKLYLQKFREAMKGEKGIGGAVTATDGLSEELTEEAFTNQLPAGLITTDGQQQNVMVYTTSYQQISGVQQIQFS [NFYB] | 0.036 | 54.5 °C | 54.5 °C | 0.064 | 0.178 | 0.0131 |
| MTNPSDRVLPANSMAESREGDFGCTVMELRKLMELRSRDALTQINVHYGGVQNLCSRLKTSPVEGLSGNPADLEKRRQVFGHNVIPPKKPKTFLELVWEALQDVTLIILEIAAIISLVLSFYRPAGEENELCGQVATTPEDENEAQAGWIEGAAILFSVIIVVLVTAFNDWSKEKQFRGLQCRIEQEQKFSIIRNGQLIQLPVAEIVVGDIAQVKYGDLLPADGILIQGNDLKIDESSLTGESDHVKKSLDKDPMLLSGTHVMEGSGRMVVTAVGVNSQTGIILTLLGVNEDDEGEKKKKGKKQGVPENRNKAKTQDGVALEIQPLNSQEGIDNEEKDKKAVKVPKKEKSVLQGKLTRLAVQIGKAGLLMSALTVFILILYFVIDNFVINRRPWLPECTPIYIQYFVKFFIIGITVLVVAVPEGLPLAVTISLAYSVKKMMKDNNLVRHLDACETMGNATAICSDKTGTLTMNRMTVVQAYIGGIHYRQIPSPDVFLPKVLDLIVNGISINSAYTSKILPPEKEGGLPRQVGNKTECALLGFVTDLKQDYQAVRNEVPEEKLYKVYTFNSVRKSMSTVIRNPNGGFRMYSKGASEIILRKCNRILDRKGEAVPFKNKDRDDMVRTVIEPMACDGLRTICIAYRDFDDTEPSWDNENEILTELTCIAVVGIEDPVRPEVPDAIAKCKQAGITVRMVTGDNINTARAIATKCGILTPGDDFLCLEGKEFNRLIRNEKGEVEQEKLDKIWPKLRVLARSSPTDKHTLVKGIIDSTVGEHRQVVAVTGDGTNDGPALKKADVGFAMGIAGTDVAKEASDIILTDDNFTSIVKAVMWGRNVYDSISKFLQFQLTVNVVAVIVAFTGACITQDSPLKAVQMLWVNLIMDTFASLALATEPPTESLLKRRPYGRNKPLISRTMMKNILGHAFYQLIVIFILVFAGEKFFDIDSGRKAPLHSPPSQHYTIVFNTFVLMQLFNEINSRKIHGEKNVFSGIYRNIIFCSVVLGTFICQIFIVEFGGKPFSCTSLSLSQWLWCLFIGIGELLWGQFISAIPTRSLKFLKEAGHGTTKEEITKDAEGLDEIDHAEMELRRGQILWFRGLNRIQTQIDVINTFQTGASFKGVLRRQNMGQHLDVKLVPSSSYIKVVKAFHSSLHESIQKPYNQKSIHSFMTHPEFAIEEELPRTPLLDEEEEENPDKASKFGTRVLLLDGEVTPYANTNNNAVDCNQVQLPQSDSSLQSLETSV [ATP2B4] | -0.254 | 54.7 °C | 54.9 °C | -0.0607 | 1.12 | 0.912 |
| MTO1 | -0.108 | 50 °C | 50.4 °C | -0.0427 | -0.222 | 1.63 |
| MTPEFDEEVVFENSPLYQYLQDLGHTDFEICSSLSPKTEKCTTEGQQKPPTRVLPKQGILLKVAETIKSWIFFSQCNKKDDLLHKLDIGFRLDSLHTILQQEVLLQEDVELIELLDPSILSAGQSQQQENGHLPTLCSLATPNIWDLSMLFAFISLLVMLPTWWIVSSWLVWGVILFVYLVIRALRLWRTAKLQVTLKKYSVHLEDMATNSRAFTNLVRKALRLIQETEVISRGFTLVSAACPFNKAGQHPSQHLIGLRKAVYRTLRANFQAARLATLYMLKNYPLNSESDNVTNYICVVPFKELGLGLSEEQISEEEAHNFTDGFSLPALKVLFQLWVAQSSEFFRRLALLLSTANSPPGPLLTPALLPHRILSDVTQGLPHAHSACLEELKRSYEFYRYFETQHQSVPQCLSKTQQKSRELNNVHTAVRSLQLHLKALLNEVIILEDELEKLVCTKETQELVSEAYPILEQKLKLIQPHVQASNNCWEEAISQVDKLLRRNTDKKGKPEIACENPHCTVVPLKQPTLHIADKDPIPEEQELEAYVDDIDIDSDFRKDDFYYLSQEDKERQKREHEESKRVLQELKSVLGFKASEAERQKWKQLLFSDHAVLKSLSPVDPVEPISNSEPSMNSDMGKVSKNDTEEESNKSATTDNEISRTEYLCENSLEGKNKDNSSNEVFPQGAEERMCYQCESEDEPQADGSGLTTAPPTPRDSLQPSIKQRLARLQLSPDFTFTAGLAAEVAARSLSFTTMQEQTFGGEEEEQIIEENKNEIEEK [VEZT] | 0.0301 | 52.6 °C | 52 °C | -0.229 | -1.08 | -3.04 |
